Test results: patent US7115410 (ELAN PHARMACEUTICALS, dated 2006)
Square brackets hold non-standard residues; d marks the D form. Sta = CC(C)C[C@H](N)[C@@H](O)CC(=O)O

Key:
[1] = target: T1, recombinant β-secretase from 293T or Cos A2 cells transfected with the full-length construct, form with … (human, UniProt P56817 46-501); assay: affinity chromatography on P10-P4′staD→V Sepharose, extracts of transfected 293T and COS A2 cells, pH 4.5
T1 construct: also called Recombinant, 293T; Recombinant, CosA2
T1 sequence (P56817 46-501): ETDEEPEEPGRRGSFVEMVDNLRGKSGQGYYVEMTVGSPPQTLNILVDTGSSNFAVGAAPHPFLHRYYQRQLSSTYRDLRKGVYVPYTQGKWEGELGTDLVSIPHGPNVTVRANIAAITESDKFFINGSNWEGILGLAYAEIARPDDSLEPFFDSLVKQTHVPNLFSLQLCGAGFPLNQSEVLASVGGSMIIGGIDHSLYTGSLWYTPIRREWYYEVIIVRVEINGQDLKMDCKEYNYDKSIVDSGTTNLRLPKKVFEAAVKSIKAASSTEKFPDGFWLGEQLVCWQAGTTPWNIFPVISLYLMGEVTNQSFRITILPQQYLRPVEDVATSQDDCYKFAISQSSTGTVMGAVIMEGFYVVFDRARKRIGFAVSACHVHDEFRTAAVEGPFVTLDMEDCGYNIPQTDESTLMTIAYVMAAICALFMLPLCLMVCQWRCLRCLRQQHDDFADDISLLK
Procedure: (§1) The cell pellet was resuspended by homogenizing for 30 seconds using a handheld homogenizer (0.5 ml/pellet of approximately 10^6 cells in extraction buffer consisting of 20 mM TRIS buffer, pH 7.5, 2 mM EDTA, 0.2% Triton X-100, plus protease inhibitors: 5 μg/ml E-64, 10 μg/ml pepstatin, 1 mM PMSF), centrifuged as maximum speed in a microfuge (40 minutes at 4 degrees C.). Pellets were suspended in original volume of extraction buffer, then stirred at 1 hour at 4 degrees C. with rotation, and centrifuted again in a microfuge at maximum speed for 40 minutes. The resulting supernatant was saved as the "extract." The extract was then diluted with 20 mm sodium acetate, pH 5.0, 2 mM EDTA and 0.2% Triton X-100 (SP buffer A), and 5 M NaCl was added to a final concentration of 60 mM NaCl. The pH of the solution was then adjusted to pH 5.0 with glacial acetic acid diluted 1:10 in water. Aliquots were saved ("SP load"). The SP load was passed through a 1 ml SP HiTrap column which was pre-washed with 5 ml SP buffer A, 5 ml SP buffer B (SP buffer A with 1 M NaCl) and 10 ml SP buffer A. An additional 2 ml of 5% SP buffer B was passed through the column to dissplace any remaining sample from the column. The pH of the SP flow-through was adjusted to pH 4.5 with 10× diluted acetic acid. This flow-through was then applied to a P10-P4'staD→V-Sepharose Affinity column, as described below. […]

[2] = target: T2, recombinant β-secretase from 293T cells, minor form starting at Met-63 (human, UniProt P56817 63-501); assay: N-terminal sequencing of fractions from P10-P4′(statine)D→V Sepharose, 293T cells
T2 construct: C-terminus not determined
T2 sequence (P56817 63-501): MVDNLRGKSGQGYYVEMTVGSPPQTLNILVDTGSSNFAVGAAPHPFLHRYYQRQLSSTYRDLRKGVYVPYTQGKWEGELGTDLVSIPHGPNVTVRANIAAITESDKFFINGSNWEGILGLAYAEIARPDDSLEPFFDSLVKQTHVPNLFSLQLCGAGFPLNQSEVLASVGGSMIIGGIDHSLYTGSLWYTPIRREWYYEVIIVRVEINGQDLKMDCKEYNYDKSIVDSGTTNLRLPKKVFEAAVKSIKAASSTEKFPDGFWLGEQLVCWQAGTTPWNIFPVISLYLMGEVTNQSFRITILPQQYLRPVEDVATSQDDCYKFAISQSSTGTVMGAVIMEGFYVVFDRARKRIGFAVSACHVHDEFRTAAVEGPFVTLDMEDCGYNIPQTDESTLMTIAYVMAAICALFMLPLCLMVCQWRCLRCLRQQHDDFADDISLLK
Procedure: as §1

[3] = target: T3, recombinant β-secretase from 293T cells, minor form starting at Thr-22 (human, UniProt P56817 22-501); assay: N-terminal sequencing of fractions from P10-P4′staD→V Sepharose, 293T cells
T3 construct: C-terminus not determined
T3 sequence (P56817 22-501): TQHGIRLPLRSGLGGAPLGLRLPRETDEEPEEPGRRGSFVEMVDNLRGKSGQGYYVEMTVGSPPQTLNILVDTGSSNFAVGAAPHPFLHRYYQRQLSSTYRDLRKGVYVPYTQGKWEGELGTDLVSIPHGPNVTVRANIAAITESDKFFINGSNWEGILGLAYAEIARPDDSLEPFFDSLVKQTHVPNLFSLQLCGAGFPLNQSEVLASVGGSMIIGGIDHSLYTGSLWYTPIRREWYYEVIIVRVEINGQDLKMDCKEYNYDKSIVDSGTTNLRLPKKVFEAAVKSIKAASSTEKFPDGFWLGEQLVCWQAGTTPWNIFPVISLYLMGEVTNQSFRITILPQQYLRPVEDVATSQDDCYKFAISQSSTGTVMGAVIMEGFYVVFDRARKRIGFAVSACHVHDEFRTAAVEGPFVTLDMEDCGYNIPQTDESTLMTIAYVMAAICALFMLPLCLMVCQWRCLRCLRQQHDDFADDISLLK
Procedure: as §1

β-secretase 46-452 = target: T4, β-secretase 46-452 (human, UniProt P56817 46-452); assay: binding to P10-P4′staD→V affinity matrix
T4 construct: C-terminally truncated form lacking the transmembrane region
T4 sequence (P56817 46-452 limits assumed): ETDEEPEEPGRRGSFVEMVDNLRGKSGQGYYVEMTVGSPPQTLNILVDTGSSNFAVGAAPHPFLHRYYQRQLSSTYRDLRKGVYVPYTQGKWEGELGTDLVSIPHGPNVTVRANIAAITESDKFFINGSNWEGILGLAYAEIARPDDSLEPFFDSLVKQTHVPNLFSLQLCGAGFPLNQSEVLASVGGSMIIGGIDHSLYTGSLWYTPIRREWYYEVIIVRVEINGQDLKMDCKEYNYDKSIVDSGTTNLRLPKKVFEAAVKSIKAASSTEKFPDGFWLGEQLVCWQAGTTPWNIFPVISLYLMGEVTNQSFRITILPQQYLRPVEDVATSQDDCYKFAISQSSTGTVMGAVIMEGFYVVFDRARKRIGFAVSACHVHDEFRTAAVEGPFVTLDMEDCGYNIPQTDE

[4] = target: T5, recombinant β-secretase from Cos A2 cells, major form resulting from Gly-58 cleavage (human, UniProt P56817 58-501); assay: N-terminal sequencing of fractions from P10-P4′(statine)D→V Sepharose, Cos A2 cells
T5 construct: C-terminus not determined
T5 sequence (P56817 58-501): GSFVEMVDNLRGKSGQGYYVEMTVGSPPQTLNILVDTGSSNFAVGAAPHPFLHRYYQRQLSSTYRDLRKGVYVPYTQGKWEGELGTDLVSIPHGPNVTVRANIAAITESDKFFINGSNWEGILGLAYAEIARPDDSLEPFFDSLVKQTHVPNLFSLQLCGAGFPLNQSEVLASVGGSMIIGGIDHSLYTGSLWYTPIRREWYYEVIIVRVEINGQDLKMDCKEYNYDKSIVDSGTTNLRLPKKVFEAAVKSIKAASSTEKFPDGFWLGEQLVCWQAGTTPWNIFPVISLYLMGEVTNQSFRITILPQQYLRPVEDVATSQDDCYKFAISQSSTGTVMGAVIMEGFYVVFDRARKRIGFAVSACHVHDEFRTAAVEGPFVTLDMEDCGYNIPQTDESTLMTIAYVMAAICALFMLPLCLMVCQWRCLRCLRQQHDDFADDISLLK
Procedure: as §1

- binding result [1]: binds
- binding result [2]: binds
- binding result [3]: binds
- binding result (β-secretase 46-452): binds
- binding result [4]: binds
B1: P10-P4′staD→V (NH2-KTEEISEVN[sta]VAEF-COOH) (peptide)
peptide: H-KTEEISEVN[Sta]VAEF-OH
notes: Synthetic statine peptide derived from the APPsw cleavage site with D→V at P1′; also called P10-P4′(statine)D→V
